B1: full-length NS5A Con1-His (genotype 1b) (natural protein)
chain: SGSWLRDVWDWICTVLTDFKTWLQSKLLPRLPGVPFFSCQRGYKGVWRGDGIMQTTCPCGAQITGHVKNGSMRIVGPRTCSNTWHGTFPINAYTTGPCTPSPAPNYSRALWRVAAEEYVEVTRVGDFHYVTGMTTDNVKCPCQVPAPEFFTEVDGVRLHRYAPACKPLLREEVTFLVGLNQYLVGSQLPCEPEPDVAVLTSMLTDPSHITAETAKRRLARGSPPSLASSSASQLSAPSLKATCTTRHDSPDADLIEANLLWRQEMGGNITRVESENKVVILDSFEPLQAEEDEREVSVPAEILRRSRKFPRAMPIWARPDYNPPLLESWKDPDYVPPVVHGCPLPPAKAPPIPPPRRKRTVVLSESTVSSALAELATKTFGSSESSAVDSGTATASPDQPSDDGDAGSDVESYSSMPPLEGEPGDPDLSDGSWSTVSEEASEDVVCC
B2: full-length NS5A H77-His (genotype 1a) (natural protein)
chain: SGSWLRDIWDWICEVLSDFKTWLKAKLMPQLPGIPFVSCQRGYRGVWRGDGIMHTRCHCGAEITGHVKNGTMRIVGPRTCKNMWSGTFFINAYTTGPCTPLPAPNYKFALWRVSAEEYVEIRRVGDFHYVSGMTTDNLKCPCQIPSPEFFTELDGVRLHRFAPPCKPLLREEVSFRVGLHEYPVGSQLPCEPEPDVAVLTSMLTDPSHITAEAAGRRLARGSPPSMASSSASQLSAPSLKATCTANHDSPDAELIEANLLWRQEMGGNITRVESENKVVILDSFDPLVAEEDEREVSVPAEILRKSRRFAPALPVWARPDYNPLLVETWKKPDYEPPVVHGCPLPPPRSPPVPPPRKKRTVVLTESTLPTALAELATKSFGSSSTSGITGDNTTTSSEPAPSGCPPDSDVESYSSMPPLEGEPGDPDLSDGSWSTVSSGADTEDVVCC
B3: domain 2 of JFH-1 NS5A (domain or fragment)
chain: NTYDVDMVDANLLMEGGVAQTEPESRVPVLDFLEPMAEEESDLEPSIPSECMLPRSGFPRALPAWARPDYNPPLVESWRRPDYQPPTVAGCALP
B4: full-length NS5A JFH-1-His (genotype 2a) (natural protein)
chain: SGSWLRDVWDWVCTILTDFKNWLTSKLFPKLPGLPFISCQKGYKGVWAGTGIMTTRCPCGANISGNVRLGSMRITGPKTCMNTWQGTFPINCYTEGQCAPKPPTNYKTAIWRVAASEYAEVTQHGSYSYVTGLTTDNLKIPCQLPSPEFFSWVDGVQIHRFAPTPKPFFRDEVSFCVGLNSYAVGSQLPCEPEPDADVLRSMLTDPPHITAETAARRLARGSPPSEASSSVSQLSAPSLRATCTTHSNTYDVDMVDANLLMEGGVAQTEPESRVPVLDFLEPMAEEESDLEPSIPSECMLPRSGFPRALPAWARPDYNPPLVESWRRPDYQPPTVAGCALPPPKKAPTPPPRRRRTVGLSESTISEALQQLAIKTFGQPPSSGDAGSSTGAGAAESGGPTSPGEPAPSETGSASSMPPLEGEPGDPDLESDQVELQPPPQGGGVAPGSGSGSWSTCSEEDDTTVCC

For the test, the target named is GST-CypA (cyclophilin A) (human, UniProt P62937 1-165). Briefly: radioligand binding.
As to B1, the Kd (commonly a measure of binding affinity in units of concentration) came to 126 µM. In the case of B2 it was 131 µM; in that of B3, 69 µM; in that of B4, 108 µM.
